According to patent US20200399381A1 (I MAB BIOPHARMA US, published 2020):
Changes are numbered by the printed parent chain.

T1: human IFNAR-1 on cells (human, UniProt P17181 28-557)
T1 sequence (looked up): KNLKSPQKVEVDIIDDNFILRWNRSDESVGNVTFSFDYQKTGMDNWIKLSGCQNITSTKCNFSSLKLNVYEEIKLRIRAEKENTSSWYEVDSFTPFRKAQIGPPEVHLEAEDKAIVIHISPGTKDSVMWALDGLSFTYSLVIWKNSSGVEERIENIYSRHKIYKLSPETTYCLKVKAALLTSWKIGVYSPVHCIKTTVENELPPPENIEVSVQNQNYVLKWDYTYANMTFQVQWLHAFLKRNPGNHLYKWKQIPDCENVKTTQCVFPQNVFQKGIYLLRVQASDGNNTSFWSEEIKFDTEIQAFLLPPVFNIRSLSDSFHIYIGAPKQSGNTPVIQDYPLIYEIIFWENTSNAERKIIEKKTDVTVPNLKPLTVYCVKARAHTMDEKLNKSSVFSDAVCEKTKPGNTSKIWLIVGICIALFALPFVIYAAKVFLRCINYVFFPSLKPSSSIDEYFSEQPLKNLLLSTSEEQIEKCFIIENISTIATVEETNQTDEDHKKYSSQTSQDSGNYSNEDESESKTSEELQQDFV

T2: recombinant His-tagged human IFNAR-1-ECD protein (human, UniProt P17181 28-436)
T2 construct: extracellular domain; the Biacore text says His-tagged human IFNAR-1-ECD; also called His-tagged IFNAR-1; hIFNAR-1 protein; not shown: His tag
T2 sequence (looked up): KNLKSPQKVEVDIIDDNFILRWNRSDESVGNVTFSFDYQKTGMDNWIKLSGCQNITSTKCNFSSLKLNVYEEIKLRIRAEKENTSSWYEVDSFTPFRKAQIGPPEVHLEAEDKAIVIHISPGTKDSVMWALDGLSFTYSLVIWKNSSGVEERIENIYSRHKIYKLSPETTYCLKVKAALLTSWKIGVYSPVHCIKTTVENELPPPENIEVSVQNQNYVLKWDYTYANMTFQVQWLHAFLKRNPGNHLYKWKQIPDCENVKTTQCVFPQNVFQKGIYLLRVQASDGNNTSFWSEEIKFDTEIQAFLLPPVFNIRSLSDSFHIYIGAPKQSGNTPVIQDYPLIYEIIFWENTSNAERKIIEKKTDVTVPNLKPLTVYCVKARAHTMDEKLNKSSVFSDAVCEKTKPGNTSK

B1: 487E3 (antibody, V domains shown)
VH: EVQLQQSGAELVKPGASVKLSCSASGFNIKDCYIHWVKQRTEQGLEWIGRIDPEDGETKYAPKFQAKATITADTSSNTAYLQLNSLTSEDTAVYYCARHCNFLYFDYWGQGSTLTVS
VL: DIVMTQSQKSMSTSLGDRVTVTCKASQNVGTIVAWYQLKPGQSPKTLIYSASYRSSGVPDRFTGSGSGTDFTLTISNVQSEDLAEYFCQQYNNYPVIFGSGTKLEIR
notes: Hybridoma-derived monoclonal antibody
B2: 430H6 (antibody, V domains shown)
VH: QVTLKESGPGILQPSQTLSLTCTFSGFSLNTYGMGVGWIRQPSGKGLEWLANIWWDDDKYYNPSLKNRLTISKDTSNNQAFLKITNVDTADTATYFCARHPLPGYKDNYVVDAWGQGASVTVSS
VL: DVVLTQTPGSLSVTLGDQASISCRSSQSLEYSDQYTYLEWYLQKSGQSPQLLIYGVSNRFSGVPDRFIGSGSGTDFTLKISRVEPEDLGVYYCFQATHDPYTFGAGTKLELK
notes: as for B1
B3: 106A7 (antibody, V domains shown)
VH: EVQLQQSGADLVKPGASVKLSCTTSGFNIKDYYMHWVNQRTEQGLEWIGRIDPEDGETKYAPKFQGKATITADTSSNTAYLQLSSLTSEDTAVYYCARDWGHSFDYWGQGTTLTVSS
VL: DIVMTQSQKFMSTSVGDRVSVTCKASQNVGTTVAWYQQKPGQSPKTLIYSASYRYSGVPDRFTGSGSGTDFTLTISNVQSEDLAEYFCQQYNSYTFGGGTKLEMK
notes: as for B1
B4: 402G3 (antibody, V domains shown)
VH: QVQLQQSGAELVKPGSSVKISCKASGFTFTSHFIHWIKQQPGNGLKWIGWIYPGDDDTEYNHKFNGKATLTADKSSSTAYMHLSSLTSEDSAVYFCARRVEYYNGGFAYWGQGTLVTVSS
VL: DVQMTQSPSYLAAPPGESVSISCKASKNIRNNLGWYQERPGKTPNLLIHSGSTLQSGAPSRFSGGGSGTDFTLTIRSLESEDSAVYYCQQYDQYPLTFGSGTKLEIK
notes: as for B1
B5: 370E5 (antibody, V domains shown)
VH: EVQLQQSGAELVKPGASVKLSCTASGFNIKDYYIHWVKQRTEQGLEWIGRIDPEDGETKYAPKFQGKATITADTSSNTAYLQLSSLTSEDTAVYYCARFGGLTAMDYWGQGTSVTVSS
VL: DIVMTQSQKFMSTSVGDRVSVTCKASQNVGTNVAWYQQKPGQSPKALIYATSYRYSGVPDRFTGSGSGTDFTLTISNVQSEDLAEYFCQQYNNYPYTFGGGTKLEIK
notes: as for B1
B6: 485G10 (antibody, V domains shown)
VH: B5 VH with A24G, A92V, A97G, F99Y, G100H, L102Y, T103W, M105L
VL: B5 VL with A25T, A46P, A50S, T74I, Q89H, N92F, N93S, K103L
notes: Hybridoma-derived monoclonal antibody; also called mouse antibody 485G10
B7: 104A3 (antibody, V domains shown)
VH: EVQLQQSGAELVKPGASVKVSCTGSGFNIKDYYIHWVKQRTEQGLEWIGRIDPEDGETKYAPKFQGKATITSDTSSNTAYLQLSSLTSGDTAVYFCARYDGYYCFDYWGQGTTLTVSS
VL: B5 VL with A46P, A50S, E81A, E85A, K103R
notes: as for B1
B8: 392D6 (antibody, V domains shown)
VH: B5 VH with E1A, A9T, T23S, I34V, R40K, I70V, L81M, A97T, T103D
VL: B5 VL with A46P, A50S, S56N, D70E, Y91F, N93R
notes: as for B1
B9: 124D12 (antibody, V domains shown)
VH: B7 VH with K67R, F95Y
VL: B5 VL with A46P, A50S, E81A, E85A, K103R
notes: as for B1

molecular target: T1, human IFNAR-1 on cells; assay: cell-based or functional assay

Binder	EC50 (nM), inhibition of IFNα2b-induced SEAP reporter in HEK-Blue IFNα/β cells [nM]
B1	0.161
B2	1.3
B3	3.52
B4	1.27
B5	2.17
B6	0.286
B7	1.31
B8	0.824
B9	0.981

molecular target: T2, recombinant His-tagged human …; assay: ELISA, coated His-tagged IFNAR-1
Protocol: This example tested the binding properties of the anti-IFNAR-1 mouse antibodies to the human IFNAR-1 proteins by ELISA assay. In short, His-tagged IFNAR-1 was coated at 0.5 μg/ml overnight and then blocked by 5% BSA in PBS. Serial diluted anti-IFNAR-1 antibodies were incubated with the coated antigen for 1 h at room temperature. The resulting plates were washed with PBS/T and incubated with goat anti-mouse IgG-HRP for 1 h at room temperature. The plates were developed with TMB substrate and analyzed by spectrophotometer at OD 450-630 nm.

Binder	EC50 [nM]
B1	0.028
B2	0.733
B3	0.099
B4	0.137
B5	0.052
B6	0.015
B7	0.056
B8	0.054
B9	0.062
